Kd data for two molecules are collected here from patent US11672873 (dated 2023).

The Kd is the constant that tells how readily two partners part at equilibrium. Low values mean higher affinity, high ones lower affinity.

The target in assay [1] is T1, soluble B7H4.
T1 chain: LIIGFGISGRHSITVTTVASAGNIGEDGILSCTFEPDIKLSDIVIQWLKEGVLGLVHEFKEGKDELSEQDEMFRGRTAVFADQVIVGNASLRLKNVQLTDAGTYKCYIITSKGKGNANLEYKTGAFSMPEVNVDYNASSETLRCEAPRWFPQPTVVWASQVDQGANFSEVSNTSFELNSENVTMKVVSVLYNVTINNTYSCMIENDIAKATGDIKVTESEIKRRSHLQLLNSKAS
Put plainly: SPR; experiment #2, 25 nM B7-H4.

In assay [2] the target is T1, soluble B7H4. Description: SPR; experiment #1, 20 nM B7-H4. Background: Surface plasmon resonance follows binding to a sensor surface in real time, without labels.

B1: anti-B7-H4 antibody 817 (antibody, V domains shown)
VH: EVQLVESGGGLVQPGGSLRLSCAASGFTFSSYAMHWVRQAPGKGLEWVSAISGSGGSTRYADSVKGRFTISRDNSKNTLYLQMNSLRAEDTAVYYCARGRWSKWGFDVWGQGTLVTVSS
VL: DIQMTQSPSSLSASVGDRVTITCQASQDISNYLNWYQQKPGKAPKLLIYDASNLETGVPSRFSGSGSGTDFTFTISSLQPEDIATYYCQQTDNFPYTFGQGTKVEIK
Regarding B1, the Kd in assay [1] was determined as 0.119 nM; in assay [2] it was 0.079 nM.

B2: anti-B7-H4 antibody 801 (antibody, V domains shown)
VH: EVQLVESGGGLVQPGGSLRLSCAASGFTFNSYAMHWVRQAPGKGLEWVSAISGNGGSTRYADSVKGRFTISRDNSKNTLYLQMNSLRAEDTAVYYCARDRFRKVHGFDVWGQGTLVTVSS
VL: DIQMTQSPSSLSASVGDRVTITCQASQDISNYLNWYQQKPGKAPKLLIYDASNLETGVPSRFSGSGSGTDFTFTISSLQPEDIATYYCQQDATFPLTFGQGTKVEIK
Take B2: the figures for the Kd in assay [1] and in assay [2] were 0.383 nM and 0.175 nM, respectively.
